# In IntAct's records for PubMed 21804599:
# B1: "Na(+)/H(+) exchange regulatory cofactor NHE-RF1" (Homo sapiens), O14745 (parent)
# chain: MSADAAAGAPLPRLCCLEKGPNGYGFHLHGEKGKLGQYIRLVEPGSPAEKAGLLAGDRLVEVNGENVEKETHQQVVSRIRAALNAVRLLVVDPETDEQLQKLGVQVREELLRAQEAPGQAEPPAAAEVQGAGNENEPREADKSHPEQRELRPRLCTMKKGPSGYGFNLHSDKSKPGQFIRSVDPDSPAEASGLRAQDRIVEVNGVCMEGKQHGDVVSAIRAGGDETKLLVVDRETDEFFKKCRVIPSQEHLNGPLPVPFTNGEIQKENSREALAEAALESPRPALVRSASSDTSEELNSQDSPPKQDSTAPSSTSSSDPILDFNISLAMAKERAHQKRSSKRAPQMDWSKKNELFSNL
# partner: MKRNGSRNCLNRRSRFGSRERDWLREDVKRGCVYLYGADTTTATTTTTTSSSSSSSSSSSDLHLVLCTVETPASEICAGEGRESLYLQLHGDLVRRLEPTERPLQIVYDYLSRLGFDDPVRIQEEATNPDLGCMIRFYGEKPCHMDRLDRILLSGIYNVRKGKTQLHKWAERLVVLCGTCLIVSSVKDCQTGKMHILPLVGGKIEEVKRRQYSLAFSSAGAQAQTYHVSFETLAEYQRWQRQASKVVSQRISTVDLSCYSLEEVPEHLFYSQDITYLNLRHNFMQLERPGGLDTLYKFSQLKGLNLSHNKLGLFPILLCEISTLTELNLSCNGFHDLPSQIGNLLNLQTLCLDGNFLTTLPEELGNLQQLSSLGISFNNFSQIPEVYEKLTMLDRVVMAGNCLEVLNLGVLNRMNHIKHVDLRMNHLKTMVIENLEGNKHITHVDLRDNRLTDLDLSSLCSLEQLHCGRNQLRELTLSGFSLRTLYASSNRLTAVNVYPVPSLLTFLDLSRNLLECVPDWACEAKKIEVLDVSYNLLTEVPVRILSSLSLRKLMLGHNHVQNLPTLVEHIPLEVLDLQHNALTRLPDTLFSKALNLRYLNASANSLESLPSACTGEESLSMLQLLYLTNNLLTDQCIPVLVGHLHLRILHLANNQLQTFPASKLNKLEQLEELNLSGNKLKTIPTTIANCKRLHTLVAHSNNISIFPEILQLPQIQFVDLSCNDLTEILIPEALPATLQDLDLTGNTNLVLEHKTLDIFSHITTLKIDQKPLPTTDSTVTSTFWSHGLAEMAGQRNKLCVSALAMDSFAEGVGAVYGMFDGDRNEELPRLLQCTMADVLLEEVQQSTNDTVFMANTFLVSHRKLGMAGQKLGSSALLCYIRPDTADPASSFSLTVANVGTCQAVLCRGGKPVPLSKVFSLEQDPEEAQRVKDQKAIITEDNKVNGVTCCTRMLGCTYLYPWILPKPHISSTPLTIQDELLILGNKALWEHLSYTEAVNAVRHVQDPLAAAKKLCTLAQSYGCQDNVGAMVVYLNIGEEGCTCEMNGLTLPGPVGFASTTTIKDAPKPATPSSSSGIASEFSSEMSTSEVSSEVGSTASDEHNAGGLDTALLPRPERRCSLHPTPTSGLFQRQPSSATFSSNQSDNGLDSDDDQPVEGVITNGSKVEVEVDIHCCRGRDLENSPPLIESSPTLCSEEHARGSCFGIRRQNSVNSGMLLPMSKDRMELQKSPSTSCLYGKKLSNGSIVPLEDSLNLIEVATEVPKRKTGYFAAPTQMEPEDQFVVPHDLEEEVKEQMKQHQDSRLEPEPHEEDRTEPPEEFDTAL
# B2: "Na(+)/H(+) exchange regulatory cofactor NHE-RF1" (Homo sapiens), O14745 (parent)
# chain: B1 chain
# partner: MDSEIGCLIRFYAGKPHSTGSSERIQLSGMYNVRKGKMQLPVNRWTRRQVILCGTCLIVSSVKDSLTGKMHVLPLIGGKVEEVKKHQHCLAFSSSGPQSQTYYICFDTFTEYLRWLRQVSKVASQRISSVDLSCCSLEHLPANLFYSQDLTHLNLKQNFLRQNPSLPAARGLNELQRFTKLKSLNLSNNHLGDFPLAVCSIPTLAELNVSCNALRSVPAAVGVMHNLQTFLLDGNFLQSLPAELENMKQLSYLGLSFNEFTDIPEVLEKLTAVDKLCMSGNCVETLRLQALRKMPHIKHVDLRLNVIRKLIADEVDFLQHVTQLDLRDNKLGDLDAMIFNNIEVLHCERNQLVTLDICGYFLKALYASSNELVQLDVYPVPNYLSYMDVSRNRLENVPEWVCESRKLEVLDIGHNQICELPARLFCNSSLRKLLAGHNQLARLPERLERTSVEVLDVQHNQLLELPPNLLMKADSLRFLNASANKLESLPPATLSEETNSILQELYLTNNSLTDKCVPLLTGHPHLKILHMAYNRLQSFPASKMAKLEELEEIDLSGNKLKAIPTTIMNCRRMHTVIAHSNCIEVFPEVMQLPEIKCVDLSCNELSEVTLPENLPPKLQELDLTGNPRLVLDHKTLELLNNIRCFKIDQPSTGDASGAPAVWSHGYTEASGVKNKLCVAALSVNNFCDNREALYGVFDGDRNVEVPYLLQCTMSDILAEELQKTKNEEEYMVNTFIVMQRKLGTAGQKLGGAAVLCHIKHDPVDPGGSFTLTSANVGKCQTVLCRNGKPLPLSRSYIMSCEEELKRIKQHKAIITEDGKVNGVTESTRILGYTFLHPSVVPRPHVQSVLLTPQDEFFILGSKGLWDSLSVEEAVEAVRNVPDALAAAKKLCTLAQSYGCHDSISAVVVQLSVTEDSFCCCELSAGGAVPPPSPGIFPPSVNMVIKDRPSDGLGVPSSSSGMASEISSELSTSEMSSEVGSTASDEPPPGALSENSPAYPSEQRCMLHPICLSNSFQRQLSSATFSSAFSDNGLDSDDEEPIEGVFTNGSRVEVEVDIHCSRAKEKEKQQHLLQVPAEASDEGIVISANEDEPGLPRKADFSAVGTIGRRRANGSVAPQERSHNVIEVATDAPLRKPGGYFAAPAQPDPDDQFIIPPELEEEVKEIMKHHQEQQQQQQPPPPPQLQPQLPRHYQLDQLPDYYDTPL
# Variants of: B1
# Details: with phlp2_human PHLPP2, Q6ZVD8
row,effect of a mutation on the interaction,Variant
1,disrupting interaction,MSADAAAGAPLPRLCCLEKGPNGYGFHLHGEKGKLGRYIRLVEPGSPAEKAGLLAGDRLVEVNGENVEKETHQQVVSRIRAALNAVRLLVVDPETDEQLQKLGVQVREELLRAQEAPGQAEPPAAAEVQGAGNENEPREADKSHPEQRELRPRLCTMKKGPSGYGFNLHSDKSKPGQFIRSVDPDSPAEASGLRAQDRIVEVNGVCMEGKQHGDVVSAIRAGGDETKLLVVDRETDEFFKKCRVIPSQEHLNGPLPVPFTNGEIQKENSREALAEAALESPRPALVRSASSDTSEELNSQDSPPKQDSTAPSSTSSSDPILDFNISLAMAKERAHQKRSSKRAPQMDWSKKNELFSNL [Q37R]

# Variants of: B2
# Details: with PHLPP1, O60346-2
row,effect of a mutation on the interaction,Variant
1,disrupting interaction,MSADAAAGAPLPRLCCLEKGPNGYGFHLHGEKGKLGRYIRLVEPGSPAEKAGLLAGDRLVEVNGENVEKETHQQVVSRIRAALNAVRLLVVDPETDEQLQKLGVQVREELLRAQEAPGQAEPPAAAEVQGAGNENEPREADKSHPEQRELRPRLCTMKKGPSGYGFNLHSDKSKPGQFIRSVDPDSPAEASGLRAQDRIVEVNGVCMEGKQHGDVVSAIRAGGDETKLLVVDRETDEFFKKCRVIPSQEHLNGPLPVPFTNGEIQKENSREALAEAALESPRPALVRSASSDTSEELNSQDSPPKQDSTAPSSTSSSDPILDFNISLAMAKERAHQKRSSKRAPQMDWSKKNELFSNL [Q37R]
